Test [1] has as its system SMAD1 trans-activation potential. Briefly: GAL4 DBD-SMAD1 luciferase trans-activation reporter assay. In kind it is cell-based, human. The method, then:
Reporter assays using the GALA DNA binding domain fused to various forms of SMAD proteins were performed as described (Meersseman, G at al, Mech. Dev, 61: 127-140, 1997). Briefly, 420 nanograms (ng) DNA was transfected/well (24 well-plate seeded with 1×10^5 HEK 293T cells) one day prior to transfection. The DNA mix included a plasmid expressing β-galactosidase under the control of the RSV promoter, for normalization purposes and a reporter plasmid encoding firefly luciferase under the control of 5 GAL4 binding sites upstream of a minimal TATA box (pG5 luc, Promega, Mannheim) and combinations of effector plasmids. The DNA content was normalized with empty vector.
Cells were harvested and lysed. β-Galactosidase (β-gal) activity was measured via the luminescent β-galactosidase kit II (Clontech, Palo Alto, Calif.), and luciferase activity via the luciferase assay system (Promega, Mannheim). All results are expressed as luciferase activity normalized with β-gal values (“relative luciferase activities”). Reporter assays with the SMAD1 DNA binding element SBE-9 (GCCG×9) (Kusanagi K et al, Mol Biol Cell 11: 555-565, 2000) cloned into pCAT5 vector (Boshart M et al, Gene 110: 129-130, 1992) were performed similarly except that cells were lysed in CAT lysis buffer. CAT enzyme was measured via CAT ELISA assay and β-gal via chemiluminescent β-gal reporter gene assay (Roche, Mannheim).
To determine whether MH2 domains involved in TAK1 binding mediated inhibition of R-SMAD biological activity, a reporter assay measuring SMAD trans-activation potential was performed. Full-length SMAD1 and deletion mutants thereof were fused in-frame with the GAL4-DNA binding domain, and SMAD trans-activation potential was measured via UAS-driven-luciferase reporter expression (FIGS. 6B & C). The trans-activating potential of SMAD1/GAL4 hybrid molecules was measured with increasing amounts of TAK1 variants. […]
(In general: A reporter such as luciferase makes a cellular process visible.)

A further test relates to C3H10T½-BMP2 cells. Briefly: Histological analysis and alkaline phosphatase staining of C3H10T½-BMP2 cells. The class given is cell-based, murine. The method, then:
Murine C3H10T½ progenitor cells were cultured in high-glucose DMEM containing 10% fetal calf serum, as described (Ahrens Met al, DNA Cell Biol, 12: 871-880, 1993). Cells were stably transfected with expression plasmids encoding wt TAK1, dominant-negative (dn) or constitutively active (ca) TAK1 in pMT7T3-f1 using DOSPER™ according to the manufacturer's protocol (Roche, Mannheim) and a selection plasmid conferring puromycin resistance (pBSpacDp: parental C3H10T½ cells) or G418-resistance (pAG60: BMP2-expressing C3H10T½ cells). Individual clones were picked, propagated, and tested for recombinant expression of TAK1-variants by RT-PCR using a vector-specific and a gene-specific primer. Control cell lines (empty to expression vector) were established at the same time. Cells were plated at a density of 5,000 cells/cm^2. After reaching confluence (arbitrarily termed day 0) ascorbic acid (50 microgram/milliliter (μg/ml)) and b-glycerophosphate (10 millimolar (mM)) were added.
Proteoglycan-secreting chondrocytes were identified by staining with Alcian Blue at pH 2.5 (Alcian Blue 8GS, Roth, Karlsruhe).
Osteoblast formation was evaluated as a measure of TAK1 influence on osteo-/chondrogenic differentiation potential. C3H10T½-BMP2 cells co-expressing TAK1 and its molecular variants were assessed histologically for alkaline phosphatase (ALP) activity (FIG. 8C), which is indicative of osteoblast differentiation.

B1: TAK1dn: dominant-negative TAK1 mutant (K63W), kinase inactive (protein)
chain: MSTASAASSSSSSSASEMIEAPSQVLNFEEIDYKEIEVEEVVGRGAFGVVCKAKWRAKDVAIWQIESESERKAFIVELRQLSRVNHPNIVKLYGACLNPVCLVMEYAEGGSLYNVLHGAEPLPYYTAAHAMSWCLQCSQGVAYLHSMQPKALIHRDLKPPNLLLVAGGTVLKICDFGTACDIQTHMTNNKGSAAWMAPEVFEGSNYSEKCDVFSWGIILWEVITRRKPFDEIGGPAFRIMWAVHNGTRPPLIKNLPKPIESLMTRCWSKDPSQRPSMEEIVKIMTHLMRYFPGADEPLQYPCQYSDEGQSNSATSTGSFMDIASTNTSNKSDTNMEQVPATNDTIKRLESKLLKNQAKQQSESGRLSLGASRGSSVESLPPTSEGKRMSADMSEIEARIVATAGNGQPRRRSIQDLTVTGTEPGQVSSRSSSPSVRMITTSGPTSEKPARSHPWTPDDSTDTNGSDNSIPMAYLTLDHQLQPLAPCPNSKESMAVFEQHCKMAQEYMKVQTEIALLLQRKQELVAELDQDEKDQQNTSRLVQEHKKLLDENKSLSTYYQQCKKQLEVIRSQQQKRQGTS
modifications: left off: small tags and cut ends
As for B1, the “trans-activating potential of GAL4-SMAD1-MH2 and GAL4-SMAD1-L+MH2 constructs” value in test [1] (FIG. 6C) is reported as “no effect”. The “trans-activation activity after sharp drop from elevated value” in test [1] (higher amounts of TAK1dn) is recorded as “roughly 70%”. The “increase of SMAD trans-activation” value in test [1] (low concentrations of TAK1dn) is 35%. Also, the “growth phenotype of C3H10T½-BMP2 cells expressing the TAK1 variant” value in the test on C3H10T½-BMP2 cells (after confluence) is “Multiple layer growth”. Further, in the test with C3H10T½-BMP2 cells (compared to C3H10T½-BMP2 cells, 10 days post-confluence), the “osteoblast-like cell formation / ALP activity” value is recorded as “enhanced ALP activity”.

These data come from US20100209400A1, “TAK1-Mediated Regulation of Osteogenesis” (priority 2003, published 2010).
